Here are results for two molecules from patent US20210115146A1 (WUXI BIOLOGICS IRELAND, published 2021).

Several values for one entry are separate records, joined by “and”; a condition that tells them apart may be missing. Identical values can stand only once.

The target in test [1] is T1, human EGFR (cell surface) (human, UniProt P00533 25-1210). The test is described as follows: cell-based or functional assay.
Test [2] addresses T2, mouse EGFR (cell surface) (mouse, UniProt Q01279 25-1210).
T2 construct: whole, on cells; also called W562-CHO-K1.mProl.F3 cells
The test is described as follows: FACS on cells expressing mouse EGFR. The procedure: (§1) The binding of antibodies to cell surface EGFR was assessed by FACS with EGFR transfected cells and A431 cell line, which over expresses human EGFR. 1×10⁵ cells/well were plated in a 96-well plate and centrifuged at 210 g for 5 minutes at 4° C. After removing the supernatant, the cell pellets were re-suspended with serial dilutions of testing purified antibodies in 1% BSA-PBS and incubated for 1 hour at 4° C., followed by incubation with FITC conjugated goat anti-human IgG (Jackson ImmunoResearch) at 4° C. for 1 hour. Two times of washing with 200 μl/well 1% BSA-PBS were applied between each step. Finally, the cells were resuspended in 100 μl 1% BSA-PBS for flow cytometry analysis (Intellicyt).

For test [3], the target named is T3, human EGFR ECD protein (W562-hPro1.ECD.his) (human, UniProt P00533 25-645).
T3 construct: extracellular domain; Made in HEK293 cells
Kind of test: SPR (ProteOn XPR36), antibody captured by anti-human IgG Fc, EGFR ECD.his as analyte. The procedure:
Each antibody was captured on an anti-human IgG Fc antibody immobilized GLM sensor chip (Bio-Rad). W562-hPro1.ECD.his at different concentrations was injected over the sensor chip at a flow rate of 100 uL/min for an association phase of 240 s, followed by 1800 s dissociation. The chip was regenerated by 10 mM glycine (pH 1.5) after each binding cycle. The sensorgrams of blank surface and buffer channel were subtracted from the test sensorgrams. The experimental data was fitted by 1:1 binding model using Langmiur analysis. Molecular weight of 85 kDa was used to calculate the molar concentration of analyte.

Test [4] deals with T1, human EGFR (cell surface). Kind of test: FACS on cells carrying human EGFR. The method, then:
as §1

For test [5], the target named is T1, human EGFR (cell surface). Kind of test: FACS binding to A431 cells (printed 'A432' in paragraph 253) after 0, 1, 4, 7 and 14 days in human serum at 37 C; lower panel. The procedure: (§2) Freshly collected human blood was incubated in polystyrene tubes without anticoagulant for 30 minutes at room temperature. The Serum was collected after centrifugation the blood at 4000 rpm for 10 minutes. Repeat the centrifugation until the serum was clarifying. Gently mix antibodies with serum and ensure the serum content >95%. The mix aliquots were incubated at 37° C. for 0 day, 1 day, 4 days, 7 days and 14 days, respectively. At the indicated time point the samples were quickly-frozen in liquid nitrogen and stored at −80° C. until analysis. The cell bindings of the serial dilutions of the antibody samples to A432 cells were analyzed by FACS. Four-parameter non-linear regression analysis was used to obtain EC₅₀ values for cell binding using GraphPad Prism 5 software (GraphPad Software, La Jolla, Calif.).

In test [6] the target is T2, mouse EGFR (cell surface). The test is described as follows: FACS affinity on transfected cells, quantitative beads. The method, then: (§3) Human, cyno, mouse EGFR and human EGFRvIII transfected cells were transferred in to 96-well U-bottom plates (BD) at a density of 5×10⁴ cells/well, respectively. Testing antibodies were 1:3.16-fold serially diluted in 1% BSA-PBS and incubated with the cells at 4° C. for 1 hr. The secondary antibody, Alexa647 conjugated goat anti-human IgG Fc (Jackson Immunoresearch Lab), was added to resuspended cells and incubated at 4° C. in the dark for 1 hr. The cells were then washed once and resuspended in PBS with 1% BSA, and analyzed by flow cytometery (BD). Fluorescence intensity was converted to bound molecules/cell based on the quantitative beads (Quantum™ MESF Kits, Bangs Laboratories). KD was calculated using Graphpad Prism5.

Test [7] has as its target T4, human EGFRvIII (cell surface) (human, UniProt P00533 25-1210).
T4 construct: whole, on cells; also called hEGFRIII; EGFR variant III
The description is as above. The procedure: as §3

Test [8] has as its target T5, Macaca fascicularis EGFR (cell surface) (Macaca fascicularis, UniProt A0A2K5WK39 25-1210).
T5 construct: whole, on cells; also called monkey EGFR; cyno EGFR
The description is as above. The method, then: as §3

Test [9] addresses T1, human EGFR (cell surface). Described as above. The method, then:
as §3

The target in test [10] is T5, Macaca fascicularis EGFR (cell surface). Kind of test: FACS on cells expressing monkey EGFR. The procedure: as §1
The target in test [11] is T1, human EGFR (cell surface). Kind of test: FACS competition with EGF-biotin (50 ng/ml) on A431 cells. The procedure: EGFR-expressing A431 cells were routinely maintained in DMEM containing 10% FBS, 10 mM HEPES and L-glutamine. 10⁵ cells per well were added to each well of a 96-well plate and centrifuged at 210 g for 5 minutes at 4° C. before the supernatant was removed. Serial dilutions of test antibodies were added to the pelleted cells and incubated for 1 hour at 4° C. […] MFI of the cells was measured by flow cytometry and analyzed by FlowJo.

The target of test [12] is T1, human EGFR (cell surface). Kind of test: FACS binding to A431 cells (printed 'A432' in paragraph 253) after 0, 1, 4, 7 and 14 days in human serum at 37 C; upper panel. The method, then: as §2

B1: W5626-2C10-z5 (humanized VHH of W5626-2C10 further comprising a human Fc of IgG1 isotype) (Fc fusion)
chain: AVQLVESGGGLVQPGGSLTLSCAASGRTFSSYAMGWFRQAPGKEREFVAADRWSGGNTRYADSVKGRFTISRDNAKNTLYLQMNSLRAEDTAVYYCAATYLSSDYEWGVPPKAYDYDYWGQGTLVTVSS
notes: Bivalent humanized VHH linked with human IgG1 Fc region; not shown: human IgG1 Fc region from a modified pcDNA3.3 vector
By EC50 is commonly meant the concentration that produces a half-maximal response. The Kd is the constant that tells how readily two partners part at equilibrium. The term koff denotes the first-order rate constant of dissociation. In general, kon refers to a measure of how fast the partners come together. As usually defined, the EC50 (read off the curve) is the midpoint of the concentration-response curve. What is called IC50 is the concentration that gives 50% inhibition. B1: the “EC50 of EGFR internalization (Fab-ZAP, viability of A431 cells)” value in test [1] turned out to be 0.21 nM. In addition, the “IC50 of inhibition of EGFR phosphorylation (pEGFR sandwich ELISA, A431 cells stimulated with EGF)” value in [1] was 10.4 nM and 22.6 nM. For the same molecule, the EC50 amounted to 1.06 nM in test [2], 0.99 nM in [4] and 0.58 nM in test [10]. The Kd in test [3] was found to be 0.162 nM; in test [6], 0.54 nM; in test [7] it was 0.32 nM; in test [8], 0.23 nM; in test [9], 1.4 nM. In [3], this molecule came in with a koff of 0.000105 s⁻¹. This molecule showed a kon in [3] of 646000 M⁻¹ s⁻¹. Further, the half-maximal effective concentration (EC50 (read off the curve)) in [5] was around 0.8 nM. Moreover, the Bmax came to 890 pM in test [6], 590 pM in test [7], 230 pM in test [8] and 920 pM in test [9]. Further, the IC50 in [11] was 2.58 nM.

B2: W5626-2C2-z22 (humanized VHH of W5626-2C2 further comprising a human Fc of IgG1 isotype) (Fc fusion)
chain: EVQLVESGGGLVQPGGSLRLSCAASGRTHSNYVMGWFRQAPGQEREFVAGISRTYGNTYYRDSVEGRFTISRDNSKNTLYLQMNSLRAEDTAVYYCAADPTRSEVILTTSHRYVYWGQGTLVTVSS
notes: as for B1
Take B2: the “EC50 of EGFR internalization (Fab-ZAP, viability of A431 cells)” value in [1] came to 0.17 nM. Further, in test [1], the “IC50 of inhibition of EGFR phosphorylation (pEGFR sandwich ELISA, A431 cells stimulated with EGF)” value was 22.6 nM and 10.4 nM. Further, in test [12], the “EC50 (read off the curve)” value was around 0.9 nM. The half-maximal effective concentration (EC50) in test [2] came to 0.65 nM; in test [4] it was 0.83 nM; in [10], 0.25 nM. Also, the Kd in [3] came to 3.22 nM; in test [6] it was 0.51 nM; in test [7], 0.24 nM; in [8], 0.26 nM; in [9], 1.1 nM. The molecule also returned a koff in [3] of 0.00209 s⁻¹. Moreover, the association rate constant (kon) in [3] came out at 649000 M⁻¹ s⁻¹. In addition, the Bmax in test [6] was found to be 1000 pM; in [7], 530 pM; in test [8] it was 230 pM; in test [9] it was 860 pM. In test [11], the IC50 stood at 1.35 nM.
